Source: the RNAGym collection of RNA variant scans (doi:10.7554/elife.90254)

B1: LINE1-full (parent)
chain: UACGUAGGUGGUUUUCCCCUGAUAGUGCUAAGGGGGCCUGGAAGUUUGGACUGGGCAGAGCUCAACACAGCGUGGCAAAGUGGCUGUGGCUAGACUGCCUCUCUGGAUUCCUCGUCACUCAGCAGGGCAUCUCUGAGAGAAAUGCC

Variants of: B1
Assay: self-cleavage, relative activity (ratio to wild type); higher = more cleavage; in vitro, sequencing; the parent is a self-cleaving ribozyme

Point of comparison: UACGUAGGUGGUUUUCCCCUGAUAGUGCUAAGGGGGCCUGGAAGUUUGGACUGGGCGGAGCUCAACACAGCGUGGCAAAGUGGCUGUGGCUAGACUGCCUCUCUGGAUUCCUCGUCACUUAGCAGGGCAUCUCUGAGAGAAAUGCC, self-cleavage 1.54. Against it:
- UACGUAGGUGGUUUUCCCCUGAUAGUGCUAAGGGGGCCUGGAAGUUUGGACUGGGCGGAGCUCAACACAGCGUGGCAAAGUGGCUGUGGCUAGACUGCCUCUCUGGUUUCCUCGUCACUCAGCAGGGCAUCUCUGAGAGAAAUGCC — lower, 0.92
- UACGUAGGUGGUUUUCCCCUGAUAGUGCUAAGGGGGCCUGGAAGUUUGGACUGGGCGGAGCUCAACACAGCGUGGCAAAGUGGCUGUGGCUAGACUGCUUCUCUGGAUUCCUCGUCACUCAGCAGGGCAUCUCUGAGAGAAAUGCC — lower, 0.13
- UACGUAGGUGGUUUUCCCCUGAUAGUGCUAAGGGGGCCUGGAAGUUUGGACUGGGCGGAGCUCAACACAGCGUGGCAAAGUGGCUGUGGCUAGACUGCAUCUCUGGAUUCCUCGUCACUCAGCAGGGCAUCUCUGAGAGAAAUGCC — lower, 0.2
- UACGUAGGUGGUUUUCCCCUGAUAGUGCUAAGGGGGCCUGGAAGUUUGGACUGGGCGGAGCUCAACACAGCGUGGCAAAGUGGCUGUGGCUAGACUGCCUCUCUGAAUUCCUCGUCACUCAGCAGGGCAUCUCUGAGAGAAAUGCC — lower, 1.04
- UACGUAGGUGGUUUUCCCCUGAUAGUGCUAAGGGGGCCUGGAAGUUUGGACUGGGCGGAGCUCAACACAGCGUGGCAAAGUGGCUGUGGCUAGACUGCCUUUCUGGAUUCCUCGUCACUCAGCAGGGCAUCUCUGAGAGAAAUGCC — lower, 1.13
- UACGUAGGUGGUUUUCCCCUGAUAGUGCUAAGGGGGCCUGGAAGUUUGGACUGGGCGGAGCUCAACACAGCGUGGCAAAGCGGCUGUGGCUAGACUGCCUCUCUGGAUUCCUCGUCACUCAGCAGGGCAUCUCUGAGAGAAAUGCC — lower, 0.89
- UACGUAGGUGGUUUUCCCCUGAUAGUGCUAAGGGGGCCUGGAAGUUUGGACUGGGCGGAGCUCAACACAGCGUGGCAAAGAGGCUGUGGCUAGACUGCCUCUCUGGAUUCCUCGUCACUCAGCAGGGCAUCUCUGAGAGAAAUGCC — lower, 1.16
- UACGUAGGUGGUUUUCCCCUGAUAGUGCUAAGGGGGCCUGGAAGUUUGGACUGGGCGGAGCUCAACACAGCGAGGCAAAGUGGCUGUGGCUAGACUGCCUCUCUGGAUUCCUCGUCACUCAGCAGGGCAUCUCUGAGAGAAAUGCC — lower, 0.37
- UACGUAGGUGGUUUUCCCCUGAUAGUGCUAAGGGGGCCUGGAAGUUUGGACUGGGCGGACCUCAACACAGCGUGGCAAAGUGGCUGUGGCUAGACUGCCUCUCUGGAUUCCUCGUCACUCAGCAGGGCAUCUCUGAGAGAAAUGCC — lower, 0.11
- UACGUAGGUGGUUUUCCCCUGAUAGUGCUAAGGGGGCCUGGAAGUUUGGACUGGGCGGAGCUCAACACAGCGUGGCAAAGUGGCUGUGGCUAGACUGCCUCUCUGGAUUCCUCGUCGCUCAGCAGGGCAUCUCUGAGAGAAAUGCC — lower, 1.41
- UACGUAGGUGGUUUUCCCCUGAUAGUGCUAAGGGGGCCUGGAAGUUUGGACUGGGCGGAGCUCAAUACAGCGUGGCAAAGUGGCUGUGGCUAGACUGCCUCUCUGGAUUCCUCGUCACUCAGCAGGGCAUCUCUGAGAGAAAUGCC — lower, 0.05
- UACGUAGGUGGUUUUCCCCUGAUAGUGCUAAGGGGGCCUGGAAGUUUGGACUGGGCGGAGCUCAACACAGCGUGGCAAAGUGGCUGUGGCUAGACUGCCUCUCUGGAUUCCUCGUCACUCAGCAGGGCAUCUCUGAGAGUAAUGCC — lower, 1.05
- UACGUAGGUGGUUUUCCCCUGAUAGUGCUAAGGGGGCCUGGAAGUUUGGACUGGGCGGAGCUUAACACAGCGUGGCAAAGUGGCUGUGGCUAGACUGCCUCUCUGGAUUCCUCGUCACUCAGCAGGGCAUCUCUGAGAGAAAUGCC — lower, 0.17
- UACGUAGGUGGUUUUCCCCUGAUAGUGCUAAGGGGGCCUGGAAGUUUGGACUGGGCGAAGCUCAACACAGCGUGGCAAAGUGGCUGUGGCUAGACUGCCUCUCUGGAUUCCUCGUCACUCAGCAGGGCAUCUCUGAGAGAAAUGCC — lower, 0.03
- UACGUAGGUGGUUUUCCCCUGAUAGUGCUAAGGGGGCCUGGAAGUUUGGACUGGGCGGAGCUCAACACAGCGUGGCAAAGUGGCUGUGGCUAGACUGCCUCUCUAGAUUCCUCGUCACUCAGCAGGGCAUCUCUGAGAGAAAUGCC — lower, 0.48
- UACGUAGGUGGUUUUCCCCUGAUAGUGCUAAGGGGGCCUGGAAGUUUGGACUGGGCGGAGCUCAACACAGCGUGGCAAAGUGGCUGUGGCUAGACUGCCUCUCUGGAUUCCUCGUCACUCAGCUGGGCAUCUCUGAGAGAAAUGCC — lower, 0.76
- UACGUAGGUGGUUUUCCCCUGAUAGUGCUAAGGGGGCCUGGAAGUUUGGACUGGGCGGAGCUCAACACAGCGUGGCAAAGUGGCUGUGGCUAGACUGCCUCUCUGGAUUCCUCGUCACUCAGCGGGGCAUCUCUGAGAGAAAUGCC — lower, 0.41
- UACGUAGGUGGUUUUCCCCUGAUAGUGCUAAGGGGGCCUGGAAGUUUGGACUGGGCGGAGCUCAACACAGCGUGGCAAAGUGGUUGUGGCUAGACUGCCUCUCUGGAUUCCUCGUCACUCAGCAGGGCAUCUCUGAGAGAAAUGCC — lower, 0.11
- UACGUAGGUGGUUUUCCCCUGAUAGUGCUAAGGGGGCCUGGAAGUUUGGACUGGGCGGAGCUCAACACAGCGUGGCAAAGUGGCUGUGGCUAGACUGCCUCUCUGGAUUCCUCGUCACUCAGCAGGGAAUCUCUGAGAGAAAUGCC — lower, 0.12
- UACGUAGGUGGUUUUCCCCUGAUAGUGCUAAGGGGGCCUGGAAGUUUGGACUGGGCGGAGCUCAACACAGCGUGGCAAAGUGGCUGUGGCUAGACUGCCUCUCUGGAUUCCUCGUCACUCAGCAGGGUAUCUCUGAGAGAAAUGCC — lower, 0.79
- UACGUAGGUGGUUUUCCCCUGAUAGUGCUAAGGGGGCCUGGAAGUUUGGACUGGGCGGAGCUCAACACAGCGUGGCAAAGUGGCUGUGGCUAGACUGCCUCUCUGGAUUCCUCGUCACUCAGCAGGGCAUCUCUGAGAUAAAUGCC — lower, 0.48
- UACGUAGGUGGUUUUCCCCUGAUAGUGCUAAGGGGGCCUGGAAGUUUGGACUGGGCGGAGCUCAACACAGCGUGGCAAAGUGGCUGUGGCUAGACUGCCUCUCUGGAUUCCUCGUCACUCAGCAGGGCAUCUCUGAGAAAAAUGCC — lower, 0.75
- UACGUAGGUGGUUUUCCCCUGAUAGUGCUAAGGGGGCCUGGAAGUUUGGACUGGGCGGAGCUCAACACAGCGUGGCAAAGUGGCUGUGGCUAGUCUGCCUCUCUGGAUUCCUCGUCACUCAGCAGGGCAUCUCUGAGAGAAAUGCC — lower, 0.19
- UACGUAGGUGGUUUUCCCCUGAUAGUGCUAAGGGGGCCUGGAAGUUUGGACUGGGCGGAGCUCAACACAGCGUGCCAAAGUGGCUGUGGCUAGACUGCCUCUCUGGAUUCCUCGUCACUCAGCAGGGCAUCUCUGAGAGAAAUGCC — lower, 0.35
- UACGUAGGUGGUUUUCCCCUGAUAGUGCUAAGGGGGCCUGGAAGUUUGGACUGGGCGGAGCUCAACACAGCGUGACAAAGUGGCUGUGGCUAGACUGCCUCUCUGGAUUCCUCGUCACUCAGCAGGGCAUCUCUGAGAGAAAUGCC — lower, 0.73
- UACGUAGGUGGUUUUCCCCUGAUAGUGCUAAGGGGGCCUGGAAGUUUGGACUGGGCGGAGCUCAACACAGCGUGGCAAAGUGGCUGUGGCUAGACUGCCUCUCUGGAUUCCUCGUCACUCAGCAGGGCAUCUCUGAGGGAAAUGCC — lower, 1.12
- UACGUAGGUGGUUUUCCCCUGAUAGUGCUAAGGGGGCCUGGAAGUUUGGACUGGGCGGAGCUCAACACAGCGUGGCAAAGUGCCUGUGGCUAGACUGCCUCUCUGGAUUCCUCGUCACUCAGCAGGGCAUCUCUGAGAGAAAUGCC — lower, 0.17
- UACGUAGGUGGUUUUCCCCUGAUAGUGCUAAGGGGGCCUGGAAGUUUGGACUGGGCGGAGCUCAACACAGCGUGGCAAAGUGGCUGUGGCUAGACUGCCUCUCUGGAUUCCUCGUCACUCGGCAGGGCAUCUCUGAGAGAAAUGCC — lower, 1.07
- UACGUAGGUGGUUUUCCCCUGAUAGUGCUAAGGGGGCCUGGAAGUUUGGACUGGGCGGAGCACAACACAGCGUGGCAAAGUGGCUGUGGCUAGACUGCCUCUCUGGAUUCCUCGUCACUCAGCAGGGCAUCUCUGAGAGAAAUGCC — lower, 0.05
- UACGUAGGUGGUUUUCCCCUGAUAGUGCUAAGGGGGCCUGGAAGUUUGGACUGGGCGGAGCCCAACACAGCGUGGCAAAGUGGCUGUGGCUAGACUGCCUCUCUGGAUUCCUCGUCACUCAGCAGGGCAUCUCUGAGAGAAAUGCC — lower, 0.08
- UACGUAGGUGGUUUUCCCCUGAUAGUGCUAAGGGGGCCUGGAAGUUUGGACUGGGCGGAGCUCAACACAGCGUGGCAAAGUGGCUGUGGCUAGACUGCCUCUCUGGAUUCCUCGUCACUCAGCAGAGCAUCUCUGAGAGAAAUGCC — lower, 1.19
- UACGUAGGUGGUUUUCCCCUGAUAGUGCUAAGGGGGCCUGGAAGUUUGGACUGGGCGGAGCUCAACACAGCGUGGCAAAGUGGCUGUGGCUAGACUGCCUCUCUGGAUUCCUCGUCACUCAGCAGGGCAUCUCUGUGAGAAAUGCC — lower, 0.95
- UACGUAGGUGGUUUUCCCCUGAUAGUGCUAAGGGGGCCUGGAAGUUUGGACUGGGCGGAGCUCAACACAGCGUGGCAAAGUGGCUGUGGCUAGACUGCCUCUCUGGAUUCCUCGUCACUCAGCAGGGCGUCUCUGAGAGAAAUGCC — lower, 0.74
- UACGUAGGUGGUUUUCCCCUGAUAGUGCUAAGGGGGCCUGGAAGUUUGGACUGGGCGGAGCUCAACACAGCGUGGCAAAGUGGCUGUGGCUAGACUGCCUCUCUGGAUUCCUCGUCACUCAGCAGGGCAUCUCUGAGAGAGAUGCC — lower, 0.72
- UACGUAGGUGGUUUUCCCCUGAUAGUGCUAAGGGGGCCUGGAAGUUUGGACUGGGCGGAGCUCAACACAGCGUGGCAGAGUGGCUGUGGCUAGACUGCCUCUCUGGAUUCCUCGUCACUCAGCAGGGCAUCUCUGAGAGAAAUGCC — lower, 0.65
- UACGUAGGUGGUUUUCCCCUGAUAGUGCUAAGGGGGCCUGGAAGUUUGGACUGGGCGGAGCUCAACACAGCGUGGCAAAGUGGCUGUGGCUAGACUGCCUCUCUGGAUUCCUUGUCACUCAGCAGGGCAUCUCUGAGAGAAAUGCC — lower, 0.29
- UACGUAGGUGGUUUUCCCCUGAUAGUGCUAAGGGGGCCUGGAAGUUUGGACUGGGCGGAGCUCAACACAGCGUGGCAAAGUGGCUGUGGCUAGACUGUCUCUCUGGAUUCCUCGUCACUCAGCAGGGCAUCUCUGAGAGAAAUGCC — lower, 0.19
- UACGUAGGUGGUUUUCCCCUGAUAGUGCUAAGGGGGCCUGGAAGUUUGGACUGGGCGGAGCUCAACACUGCGUGGCAAAGUGGCUGUGGCUAGACUGCCUCUCUGGAUUCCUCGUCACUCAGCAGGGCAUCUCUGAGAGAAAUGCC — lower, 0.07
